Data reported in patent publication US7691590B2, “Reducing myelin-mediated inhibition of axon regeneration” (Children's Medical Center Corporation, priority 2001, dated 2010).
Values joined by “and” are separate entries in the source; they are usually repeats but may differ in a detail not shown here. Identical values can stand only once.

T1: GST-NgR (extracellular domain of NgR) (Homo sapiens, UniProt Q9BZR6)
T1 construct: a GST fusion protein containing the entire extracellular domain of NgR (GST-NgR); made in house; OM-his made in COS-7 cells
T1 sequence (Q9BZR6 27-447 limits assumed): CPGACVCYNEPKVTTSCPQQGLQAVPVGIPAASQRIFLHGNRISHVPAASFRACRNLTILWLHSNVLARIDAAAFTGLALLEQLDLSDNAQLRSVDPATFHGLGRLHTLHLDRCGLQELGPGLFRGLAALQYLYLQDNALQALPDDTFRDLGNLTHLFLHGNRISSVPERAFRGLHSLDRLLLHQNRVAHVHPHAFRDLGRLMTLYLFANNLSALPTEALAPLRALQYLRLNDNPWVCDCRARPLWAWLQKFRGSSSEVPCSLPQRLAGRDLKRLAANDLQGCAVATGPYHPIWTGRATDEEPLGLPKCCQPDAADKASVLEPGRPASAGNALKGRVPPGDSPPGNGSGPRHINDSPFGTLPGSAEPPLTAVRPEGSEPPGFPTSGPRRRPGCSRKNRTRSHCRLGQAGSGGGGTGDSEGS


How the values were obtained:
[1] = tested on: chick E7 retinal ganglion neurons (RGN) expressing human NgR; test: Growth cone collapse in E7 retinal ganglion neurons expressing FLAG-NgR (HSV infection); type: cell-based; conditions: E7 RGN infected with HSV FLAG-NgR
Source text: To assess whether NgR is capable of mediating OMgp-induced inhibitory activity on neurite outgrowth, we next took a gain-of-function approach to examine whether expression of NgR was able to confer OMgp-responsiveness to otherwise insensitive neurons. It has been shown previously that chick E7 retinal ganglion neurons (RGN) are insensitive to Nogo-66, but that introduction of exogenous NgR in these neurons rendered their growth cones to be responsive to Nogo-66^9. Using the same strategy, we made a recombinant herpes simplex virus (HSV) that drives expression of a FLAG-tagged full-length human NgR (FLAG-NgR) in infected neurons. Upon infection, 80% of the E7 RGNs expressed the FLAG-NgR protein as assessed by immunocytochemistry with an anti-FLAG antibody. […] Furthermore, the growth cones of NgR-expressing axons also become collapsible by OMgp.
Growth Cone Collapse and Neurite Outgrowth Assays. […] Infection of HSV-LacZ was detected by a standard b-galatosidase staining protocol^20. FLAG-NgR expression was detected by incubating paraformaldehyde-fixed cultures with M2 anti-FLAG antibody (Sigma). Bound antibody was detected by incubation with AP-conjugated […] IgG second antibody and reaction with NBT and BCIP (Vector labs). Growth cone collapse was quantified only in those positively stained for b-galatosidase or immunoreactive for the FLAG epitope.

[2] = tested on: growth cones of E13 chick DRG neurons; test: Growth cone collapse assay with E13 chick DRG explants; type: cell-based; conditions: for growth cone collapsing activity after PI-PLC treatment of the neurons: PI-PLC pre-incubation; for EC50: E13 chick DRG growth cones, read-out: effective concentration for half-maximal response (EC50), growth cone collapse
Source text: OMgp is a Physiological Nogo Receptor Ligand and Inhibitor of Neurite Outgrowth. To examine whether any GPI-linked proteins in CNS myelin may act as inhibitors of neurite outgrowth, we treated purified bovine white matter myelin with phosphatidylinositol-specific phospholipase C (PI-PLC) and examined the released proteins for their ability to alter growth cone morphology in a growth cone collapse assay using embryonic day 13 chick dorsal root ganglia (E13 DRG)^6,9,10. […] Since the size of this band was similar to that of a previously identified CNS myelin protein OMgp^11,12, we used antibodies specific for OMgp to detect enrichment of cleaved OMgp in the PI-PLC supernatants by Western blot. […] Next, we examined whether purified recombinant OMgp protein was able to act as an inhibitor of neurite outgrowth in two well-established in vitro assays, the growth cone collapse^6,9,13 and the neurite outgrowth assays^3-7,9.
Growth Cone Collapse and Neurite Outgrowth Assays. Chick E13 DRG and E7 retina were isolated and cultured as described previously^9,10. DRG explants cultured overnight were used for growth cone collapse assays. To assess the effects of PI-PLC treatment, cultures were pre-incubated with 2 U/ml PI-PLC for 30 min prior to treatment with individual test proteins for an additional 30 min. To express NgR in E7 retinal ganglion neurons, we infected the explants with recombinant HSV for 24 hr. After incubation with each test protein for 30 min, retinal explants were fixed in 4% paraformaldehyde and 15% sucrose. Infection of HSV-LacZ was detected by a standard b-galatosidase staining protocol^20. FLAG-NgR expression was detected by incubating paraformaldehyde-fixed cultures with M2 anti-FLAG antibody (Sigma). Bound antibody was detected by incubation with AP-conjugated […] IgG second antibody and reaction with NBT and BCIP (Vector labs). Growth cone collapse was quantified only in those positively stained for b-galatosidase or immunoreactive for the FLAG epitope.

[3] = target: T1, GST-NgR (extracellular domain of NgR); test: Co-precipitation with GST-NgR on glutathione-Agarose beads; type: binding; conditions: for competition for binding to NgR: cell surface binding and co-precipitation assay
Experimental: To investigate the mechanisms by which OMgp inhibits neurite outgrowth, we used an expression cloning strategy^9,13,16 to identify cell surface OMgp-binding proteins. […] From pools of an adult human brain cDNA expression library, we isolated two cDNAs that encoded OMgp-binding proteins. […] We then established a CHO cell line stably expressing the NgR and determined the binding affinity of expressed NgR for AP-OM as 5 nM, similar to what had been determined for Nogo-66 (7 nM, ref. 9). […] We next performed co-precipitation experiments by incubating GST or a GST fusion protein containing the entire extracellular domain of NgR (GST-NgR) with OM-his alone or in the presence of AP or AP-66 protein. […] We next determined which domain(s) of OMgp was responsible for binding to NgR. Like NgR, OMgp is also a GPI-linked protein containing a leucine-rich repeat (LRR) domain. […] In addition, the C-terminal domain with serine-threonine repeats (AP-S/T) alone was also able to bind, though less strongly, to NgR expressing cells.
In co-precipitation experiments, 2 mg GST or GST-NgR were first immobilized to glutathione-Agarose beads and the beads were further incubated with or without 1 mg OM-his in the presence of 2 mg of AP or AP-66 at 4° C. for 2 hr. After extensive washing, the bound proteins were resolved with SDS-PAGE and detected by Western blotting.

[4] = tested on: cerebellar granule neurons (CGN); test: Neurite outgrowth assay with cerebellar granule neurons; type: cell-based; conditions: P7-9 rat CGN
Source text: To deplete OMgp, myelin was first solublized with 1% octylglucoside and the resultant extract was passed twice through columns with PNA-Agarose (Vector Laboratories) or control Agarose beads as described previously^12. The OMgp-enriched fraction was obtained by eluting the PNA-Agarose column with buffer containing 0.5 M D-galactose. As a significant portion of OMgp co-fractionated with Nogo-A in anion exchange columns^12, we enriched MAG or Nogo-A from myelin by applying the flow-through fractions from the PNA-Agarose columns onto a Q-Sepharose (Sigma) column^15. The column was then eluted stepwise with equal amount of buffers containing 0.15 M (MAG-enriched), 0.45 M (Nogo-A enriched), or 1.0 M NaCl^15. Aliquots of individual fractions were tested for their inhibitory activity in the neurite outgrowth assay as described previously^15,16,21.
Neurite outgrowth assays were performed as described previously^15,21. Briefly, P7-9 rat CGNs were dissected and then plated at a density of 1×10^5 cells per well. The cells were cultured for 24 hr prior to fixation with 4% paraformaldehyde and staining with a neuronal specific anti-b-tubulin antibody (TuJ-1, Covance). Quantification of neurite length and statistical analysis were performed as described previously^22.

competition for binding to NgR [3]	direct binding to GST-NgR ([3]; co-precipitation, control GST did not bind)	Molecule	growth cone collapse response in NgR-expressing neurons [1]	growth cone collapsing activity after PI-PLC treatment of the neurons ([2]; E13 chick DRG)	EC50 [2]	inhibition of neurite outgrowth [4]	growth cone collapsing activity ([2]; E13 chick DRG)
		OMgp: oligodendrocyte-myelin glycoprotein, GPI-anchored CNS myelin protein (protein, UniProt P23515 25-417, looked up) Oligodendrocyte-myelin …: ICPLQCICTERHRHVDCSGRNLSTLPSGLQENIIHLNLSYNHFTDLHNQLTQYTNLRTLDISNNRLESLPAHLPRSLWNMSAANNNIKLLDKSDTAYQWNLKYLDVSKNMLEKVVLIKNTLRSLEVLNLSSNKLWTVPTNMPSKLHIVDLSNNSLTQILPGTLINLTNLTHLYLHNNKFTFIPDQSFDQLFQLQEITLYNNRWSCDHKQNITYLLKWMMETKAHVIGTPCSTQISSLKEHNMYPTPSGFTSSLFTVSGMQTVDTINSLSVVTQPKVTKIPKQYRTKETTFGATLSKDTTFTSTDKAFVPYPEDTSTETINSHEAAAATLTIHLQDGMVTNTSLTSSTKSSPTPMTLSITSGMPNNFSEMPQQSTTLNLWREETTTNVKTPLPS	collapsible	abolished			
		Semaphorin 3A: control growth cone collapsing protein acting through neuropilin-1 and plexin receptors (protein, UniProt Q14563 21-771, looked up) Semaphorin-3A: NYQNGKNNVPRLKLSYKEMLESNNVITFNGLANSSSYHTFLLDEERSRLYVGAKDHIFSFDLVNIKDFQKIVWPVSYTRRDECKWAGKDILKECANFIKVLKAYNQTHLYACGTGAFHPICTYIEIGHHPEDNIFKLENSHFENGRGKSPYDPKLLTASLLIDGELYSGTAADFMGRDFAIFRTLGHHHPIRTEQHDSRWLNDPKFISAHLISESDNPEDDKVYFFFRENAIDGEHSGKATHARIGQICKNDFGGHRSLVNKWTTFLKARLICSVPGPNGIDTHFDELQDVFLMNFKDPKNPVVYGVFTTSSNIFKGSAVCMYSMSDVRRVFLGPYAHRDGPNYQWVPYQGRVPYPRPGTCPSKTFGGFDSTKDLPDDVITFARSHPAMYNPVFPMNNRPIVIKTDVNYQFTQIVVDRVDAEDGQYDVMFIGTDVGTVLKVVSIPKETWYDLEEVLLEEMTVFREPTAISAMELSTKQQQLYIGSTAGVAQLPLHRCDIYGKACAECCLARDPYCAWDGSACSRYFPTAKRRTRRQDIRNGDPLTHCSDLHHDNHHGHSPEERIIYGVENSSTFLECSPKSQRALVYWQFQRRNEERKEEIRVDDHIIRTDQGLLLRSLQQKDSGNYLCHAVEHGFIQTLLKVTLEVIDTEHLEELLHKDDDGDGSKTKEMSNSMTPSQKVWYRDFMQLINHPNLNTMDEFCEQVWKRDRKQRRQRPGHTPGNSNKWKHLQENKKGRNRRTHEFERAPRSV		not affected			
competed for binding to NgR		AP-66: alkaline phosphatase fusion protein containing the 66 amino acid extracellular domain of Nogo-A (protein, also: fused to alkaline phosphatase, alkaline phosphatase fusion protein containing the 66 amino acid extracellular domain of Nogo-A) RIYKGVIQAIQKSDEGHPFRAYLESEVAISEELVQKYSNSALGHVNCTIKELRRLFLVDDLVDSLK			2.3 nM		
competed for binding to NgR	bound	OM-his: purified recombinant polyhistidine-tagged mouse OMgp protein (amino acids 23-392) expressed in COS-7 cells (protein, left off: small tags and cut ends, purified recombinant polyhistidine-tagged mouse OMgp protein (amino acids 23-392) expressed in COS-7 cells) LCICPLQCTCTERHRHVDCSGRNLTTLPPGLQENIIHLNLSYNHFTDLHNQLTPYTNLRTLDISNNRLESLPAQLPRSLWNMSAANNNIKLLDKSDTAYQWNLKYLDVSKNMLEKVVLIKNTLRSLEVLNLSSNKLWTVPTNMPSKLHIVDLSNNSLTQILPGTLINLTNLTHLYLHNNKFTFIPEQSFDQLLQLQEITLHNNRWSCDHKQNITYLLKWVMETKAHVIGTPCSKQVSSLKEQSMYPTPPGFTSSLFTMSEMQTVDTINSLSMVTQPKVTKTPKQYRGKETTFGVTLSKDTTFSSTDRAVVAYPEDTPTEMTNSHEAAAATLTIHLQDGMSSNASLTSATKSPPSPVTLSIARGMPNNFSE			~1.5 nM and 1.5 nM	inhibited neurite outgrowth	induced the collapse of growth cones
